Earlier results on one substance are cited in paper PMC3466315.

In this data set the target is NifL 1-140 (Azotobacter vinelandii) (UniProt P30663). Particulars: cited from earlier work.

Chain of NifL 1-140 (P30663 1-140): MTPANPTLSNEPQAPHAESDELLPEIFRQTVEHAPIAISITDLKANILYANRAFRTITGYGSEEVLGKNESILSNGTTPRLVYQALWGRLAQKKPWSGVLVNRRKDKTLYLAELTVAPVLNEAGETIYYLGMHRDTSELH

As for NifL 1-140 (from UniProt P30663), the Kd (commonly a measure of binding affinity in units of concentration) was 0.15 µM.
